In the DeepSol protein solubility set:

Experiment: soluble on expression in E. coli; label from the status in PepcDB or PDB records

Row | Sequence | soluble on expression in E. coli
1 | MIRRRHSTTRIDRRPDGLTIYYKRANDDMEEEMLRVSVKPEGKNINDSLRSSKSSSSPPSRNSSLNLKTLKKDRKSKEGKPKSSSKHGKRMTSRAIHVSKKWSQFNRREDKTDYLDDETMQILEDLKILNCKIRKRFQIGTTCPHSLAKTDILSSSQSSKSQKSSTTTSSPVLTAVAYDYRGIPLTAPTVFPGARSEKTRETTRKAARAFARMEKEREDANNSSSRSRKTYQSRSPTGSEDSSPVIKLTRVSSGTRFPGASSPGTRERSRLMLKQCAMKKQLDEIARSLKSSKKSRKSMKSKKEKKSKPASLKTIYSKM | not soluble
2 | MSLGDERPDVLLTGLLFYDLVLTGLGKPPTPGEEIWTEGMGVSPGGIANLAVAASRFGLRTSLATVFGDDHYGAYCRGVLAGQEGIDLSLSRTADGWHTPVTVSLAYGHDRALVTHGQDPPYSQDALMGDPPEARTALVHIEAEPHAWLAKAAANGTRIYADVGWDPTQQWSRDLLDQLSLCHAFLPNEAEAMAYTRTDSAMAALGTLTDLVPVAVVTRGGDGAVAVDQTTGEYAEVPALDIDVLDPTGAGDVFGASFVAASLGGWPLAERLRFAVLAAGLSVQRHGGALAAPGWYGVHRWWHSLEDPGLRRAYGFLADRIPADPGPPVRHAPVTPPDATRREGHHHHHH | soluble
3 | MGSSHHHHHHSSGLVPRGSHMQQKLTSPDNNLVMTFQVDSKGAPTYELTYKNKVVIKPSTLGLELKKEDNTRTDFDWVDRRDLTKLDSKTNLYDGFEVKDTQTATFDETWQPVWGEEKEIRNHYNELAVTLYQPMNDRSIVIRFRLFNDGLGFRYEFPQQKSLNYFVIKEEHSQFGMNGDHIAFWIPGDYDTQEYDYTISRLSEIRGLMKEAITPNSSQTPFSQTGVQTALMMKTDDGLYINLHEAALVDYSCMHLNLDDKNMVFESWLTPDAKGDKGYMQTPCNTPWRTIIVSDDARNILASRITLNLNEPCKIADAASWVKPVKYIGVWWDMITGKGSWAYTDELTSVKLGETDYSKTKPNGKHSANTANVKRYIDFAAAHGFDAVLVEGWNEGWEDWFGNSKDYVFDFVTPYPDFDVKEIHRYAARKGIKMMMHHETSASVRNYERHMDKAYQFMADNGYNSVKSGYVGNIIPRGEHHYGQWMNNHYLYAVKKAADYKIMVNAHEATRPTGICRTYPNLIGNESARGTEYESFGGNKVYHTTILPFTRLVGGPMDYTPGIFETHCNKMNPANNSQVRSTIARQLALYVTMYSPLQMAADIPENYERFMDAFQFIKDVALDWDETNYLEAEPGEYITIARKAKDTDDWYVGCTAGENGHTSKLVFDFLTPGKQYIATVYADAKDADWKENPQAYTIKKGILTNKSKLNLHAANGGGYAISIKEVKDKSEAKGLKRL | soluble
4 | MFYYVEILGTLPEMGKAEVEALAELGVGNVEKVDYLLVSGSVKHIGVFERLGLAHEYGLLLYEGDDIKDILDFAKGLEWRNIINGTFAVRRERMRNCMHEVNDLDKKIGGIIHSQGLRVNLSRPDTVVRVYCGNKIWLGIRIREFKGKEFEDRKADRRPFSRPIALPPRIARAMVNLTKATREVLDPFMGTGGMLIEAGLIGLKVYGLDIREDMVEGAKINLEYYGIRDYVVKVGDATKIEEVFPGKTFEAVATDPPYGNSTTLPMDRNELYKRSLESIHSVLEGRLAIAFPADFDARDVAESIGFKVLGRFYQRVHSSLSRYFYVMEV | soluble
5 | ERVDEKVFSAGTSIFRGILEKVKAPLMYGDREVWGMARASEDFFFILPVTDDLTPVLFYNRLTNEPCFVSDQGITEYFKFAQEGDYIEVEGSSVFMANLLYYRFFPTRITSYNAPIEGVVSKTGNPAFTIPMLPGVSDCIEISNNRKVFLTNQLGVVNITDGMEPPIIAGVSASYGSSVRVYGHVSQRWDIIGHCYLDIYPTNCYPLSTKPVAGDDEVFVKQQGRQIEIDSNSPIVQVVVYDLEGKSVFRKRMTENA | not soluble
6 | SLTAISKMTRGLDYYEVMGLTRSANDIDIRRAYRRLALKYHPDINKDGAAGDEFLRICEAYEVLCDPKTKGFYDLYGEDALKDGISDGNGGLKGPMYRFNPEESPKAVFERFFGTANPYEALEALSNQFESMTSEEAPARGKNKVYPLELTLEEIFHGCLKKVAHKRKVLLFSGEYVEEERQLTVDVKPGLPTGTRFVFEGEGNKTPKKEPGPVVFVLKPKPHPRFVRRGSDLVHKVTLPLHHALIGTTLDIRTLDDRDLKVPISDIMRPGSSLTVPGEGMPLPATPSARGNLVIEIDLLFPTHLTETQKMLLRSAFFLPPPTEQNEETKKALRDYEAAFKHDLKGWATVFKRL | not soluble
7 | MSLNQLTDHVTLRHGATLNNRIVMSPMQTHSGLKGGFASDDTIQYYSARSRAAGMLITEFHYVSENGGPAYVPGYPEQLGAYSDAHLEGLRKTVQALKKDGNKAILQIHHAGRAAVGRHVNGLDVVAPSAIDFSFLDYPVRELTITEIDDIILDFGKATKRAIDAGFDGVEIHGANHYLIQQFFSKLSNLRTDKWGGSLNKRMAFPLAVVKEVKAIVDEYAPKGFIIGYRISPEELHGKNVGYDYTEALTLISEVIKYELDYIHLSLWAGYNSKPENSEKSYAELFKEILDDKTKLLIVGGIFGEDTATDAIENYADLIAVARGTLIDPNFAKKVTEGKGDTILHKISPETVEYSHLTPGLLEAFSREDSLGLPPLPGGETIRHLHTGKYDEGHHHHHH | soluble
8 | MYKVLRKERLTPKAVLLEVQDERAKLVKPGQYALVQANEESEPIPLSFLDVKESSYTFLVEVGGRATLEIAELVEEKIQFIEAPCGSPFPVKNYGKVLLISKNWGVAPLINIGRALKEESNEIYFVHVAEDEERVFLTKEASEISEEFLLFTEDGSLGEEGNSEWALGYFIENFGKPDLIVSAGSNLDSQMINRFAEERNIPHIAMVNAHILDANGLCLACRVLVEGQEKLACIDGPWFDASKVDWDYAIQKEAFYKEEEEKALKTFLRELQRLKARGR | not soluble
9 | MGSDKIHHHHHHMERSDAAMQPDAVSRPEIVMATRGITMLFPGTKALDNVDYNVYRGKVNVIIGENGAGKSTLMKILAGVQQPTSGQILLNGEAVRIADTRDAAAKGIGMVHQELNLSENLSVAENIFLGRELQKGVAPIDYLEQERIAAELMSRLDQAISPRTEVASLKVGQQQLVEIAKALADQADILILDEPTSALSKTEVEILFRVIRELTRQNVSIIYISHRLEELMAIGDYITILRDGCFQAEAAVSDIDVPWIVREMLGGDPVTSFLHSGRTFGAPILEAEHLTCLNDAGHQVVNDVSLMVREGEIVGIYGLMGAGRTELFECLLGIQNDYLGKIYLDSKPVSPRLSTAQRIRMGMSLVPEDRKKTGIFPLSSVASNLTIASLWRRLKYGMAIFQRQEQEVVASTVGRLAIKVSSPEVEIQALSGGNQQKVVIGRSLLTSPKVLLLDEPTRGIDVGAKADVFEMMVGLSEQGIGVLFSTSDLKEIMAVSDRILVMSNGKLTANIVRQSASESALVSASAQGF | not soluble
10 | MMSSNQQPVVLGKLGSCHGIKGWLKITAYTDSVEGIFDYSPWLIKENGEWREVKVIQWRYQGKAVVAELEGVTTRERAQMLTNCEIGILPQQMNALPEDEFYWRDLIGCEVINTTGYNMGIVDQIVETGSNDVLLVKANAKDSFGKVERMVPFVPGQFILKVDVQGKQILVDWDPDFLEHHHHHH | soluble
11 | MAHHHHHHMSSAVVKPSNGEMPKTKEQKEMKNEYQVETNKELQVNLNFHNNNIISNIFSNLSLFDYLTNIFTINKKTYMLKYCNKLNEDNFYISYFQKENDKFAQISPWHDIDLMNEDGTYNMVVEITKYNYIKLEIQLKENFNVIKQDTKKGKLRYYHNSIYWNYGALPRTYEYPKHIYTCQTGDNQDLFFTGDDDPLDVVDVGQNSLKMGQVVPVKVGSMQSHMTYM | not soluble
12 | MSLAFVCLAIGCLYTFLISTTFGCTSSSDTEIKVNPPQDFEIVDPGYLGYMYLQWQPPLSLDHFKECTVEYELKYRNIGSETWKTIITKNLHYKDGFDLNKGIEAKIHTMLPWQCTNGSEVQSSWAETTYWISPQGIPETKVQDMDCVYYNWQYLLCSWKPGIGVLLDTNYNLFYWYEGLDHALQCVDYIKADGQNIGCRFPYLEASDYKDFYICVNGSSENKPIRSSYFTFQLQNIVKPLPPVYLTFTRESSCEIKMKWSIPLGPIPARCFDYEIEIREDDTTLVTATVENETYTLKTTNETRQLCFVVRSKVNIYCSDDGIWSEWSDKQCWEGEDLSKKTEGHHHHHH | not soluble
13 | MKLESLVEEARQCQDRTVAVAAAEDEEVIEAVAMALEHRLGRFVLYGDRERLGRLLKEKGCARFSDVDVVHANSIGQAAELAVRAVHLNEADALMKGHVPTATLLKAVLNKEYGLRTGKVLSHVAVFEVPEFDRFVIVTDAAMNIAPDLEQKAQIVNNAVSIARSIGIERPKVAALAAVETVNPAMPATVDAAALAMMQKRGQIEHCLLDGPLALDNAVSLAAAKHKRIESEVAGQADILLVPDIESGNMLYKSLVYFANARVGAVIAGAKAPIVLTSRADSAESKLYSLALAICSAAK | not soluble
14 | AQLQNLVLKDREATPNDHTFVPRDIRDNVGEVVESTGVPIGESRFTISLRKTSNGRYKSTLKLVVPVVQSQTVNGIVTPVVVRTSYVTVDFDYDARSTTKERNNFVGMIADALKADKMLVHDTIVNLQGVY | soluble
15 | ETPAVQVSTNRQAIIINEQTQFKVDAALKNAGIQTDGMFVVDNSLKVRFKDTETQLKARDVIENTLGEGYITALNLLADSPEWMAKIKANPMFLGLDLRGGVHFTMQVDMKAAMQKTFERYSGDIRRELRREKIRSGTVRQAGNSLTVPLQDAGDVQKALPQLRKLFPEATLNSDGSNIVLTLSEEAVNKVCSDAVKQNITTLHNRVNELGVAEPVIQQSGADRIVVQLPGVQDTAKAKDIIGRTATLELRMVEDDPAKLREALEGNVPSGYELLSSGGDRPEILLISKQVELTGDNINDAQPSFDQMGAPAVSLSLDSAGGSIFGELTAANVGKRMAMVLIDQGKSEVVTAPVIRTAITGGRVEISGSMTTAEANDTSLLLRAGSLAAPMQIVEERTIGPSLGKENIEK | not soluble
16 | MTIEKIFTPQDDAFYAVITHAAGPQGALPLTPQMLMESPSGNLFGMTQNAGMGWDANKLTGKEVLIIGTQGGIRAGDGRPIALGYHTGHWEIGMQMQAAAKEITRNGGIPFAAFVSDPCDGRSQGTHGMFDSLPYRNDAAIVFRRLIRSLPTRRAVIGVATCDKGLPATMIALAAMHDLPTILVPGGATLPPTVGEDAGKVQTIGARFANHELSLQEAAELGCRACASPGGGCQFLGTAGTSQVVAEALGLALPHSALAPSGQAVWLEIARQSARAVSELDSRGITTRDILSDKAIENAMVIHAAFGGSTNLLLHIPAIAHAAGCTIPDVEHWTRINRKVPRLVSVLPNGPDYHPTVRAFLAGGVPEVMLHLRDLGLLHLDAMTVTGQTVGENLEWWQASERRARFRQCLREQDGVEPDDVILPPEKAKAKGLTSTVCFPTGNIAPEGSVIKATAIDPSVVGEDGVYHHTGRVRVFVSEAQAIKAIKREEIVQGDIMVVIGGGPSGTGMEETYQLTSALKHISWGKTVSLITDARFSGVSTGACFGHVSPEALAGGPIGKLRDNDIIEIAVDRLTLTGSVNFIGTADNPLTPEEGARELARRQTHPDLHAHDFLPDDTRLWAALQSVSGGTWKGCIYDTDKIIEVINAGKKALGI | not soluble
17 | MREELIEKIKKAGVVGAGGAGFPTHVKVNSKARTVLVNGAECEPLLRVDQQLMAGQASKVVMGLELVMSVTGAKEGIISLKHKYHDAISALEKEISGKPIRIHILDDFYPAGDEHVTVYESTGRLVPQGSIPLKVDCVVHNVETLLNTVDAVADQPVTDTYLTITGEVNQPLTLRLPIGTAISEALAMAGYHDSGGMQVIEGGPMMGKIVADLHQPITKTTKGLIVLPREHPLLRLKTLPADKVLRQSRVSCVQCRFCTDLCPRYLLGHQLEPHKIMRMVNYGQGQEETMKMAFACSECGVCEQYACIMGLSPRAVNALLKKELTRLGIKPSPSPADQAVDPLQPHRKIPVKRLISRLALQDYDRNAPLQERDYPIDRVAIKLCQHVGAPSVPTVKAGQKVKKGDPIASPPAKGLGSYLHASIDGVVQEITDSILISARKGSETQPWNPSV | not soluble
